Kd data for one molecule are collected here from US20230391886A1.

The target in the experiment is MUC18 (target of JM1-24-3 as used in Bio-Layer Interferometry) (Homo sapiens (Human)) (UniProt P43121). In words: Bio-Layer Interferometry, Octet RED384.

B1: JM1-24-3 (antibody, V domains shown)
VH: MSCKASGYAFTSYWMNWIKERPGQGLEWIGAIDPFNGYTEYNHKFKDKAILTADNSSSTVYMQLSSLTSEDSAVYYCARWGGRLYFDYWGQGTTLTVSS
VL: MTQSPSSMYASLGERVTITCKASQDINSFLSWFQQKPGKSPKTLIYRANRLVDGVPSRFSGSGSGQDYSLTISSLEYEDMGIYYCLQYDEFPYTFGGGTKLEIKR
For the molecule B1, the Kd stood at 1.6 nM.
